Sequences and labels used below:
B1: Cmr1 (TTHB162) (natural protein, Thermus thermophilus HB8 (endogenous), UniProt Q53W07 1-395, looked up)
chain: MRRAFREAFSPRRKEEGGVLVRRDGARVLAWERTYTLLTPLFGGGVEPREADPVSVVRATAVRGHLRFWWRAVRGWRAGGSLERLWELESALFGSAGEGGASPLSVEVEVLREGEKVGIAQYGRAVQWYLGFPLRGDKEWAPVKEGVAFRLRLRFPEKVGELNFWEELEAALWAWETFGGIGARTRRGFGALLPQGAGVPGEEEIREKLRQYGQKAGWPEGVPHLTPKSFVRVVPLSWRELAERYQAFRQARPGGDPRSPGRSYWPEPDGVRRLTGRHAPHHLPRHPVHKFPRAHFGLPIIFHFKDRGDPPDTTLRLKEADRRASPLLFRPLGEGQKPCVVAVLEGARFPGEKLVLEGKDGRTWDVDPWLTPEEAQKIPVLGGEVDPVLAFVKSL
B3: Cmr3 (TTHB161) (natural protein, Thermus thermophilus HB8 (endogenous), UniProt Q53W08 1-361, looked up)
chain: MLIEPRDPLIVRDGRPFTNSPGARAKSLPFPLPQTLAGAYRTRRALLEGLPLPERAEEVLRWGLRGPLLAEEGEGGWRLLAPRPLDALKLGEALYPLRPLELPQGAGTNLPEGLSPVGLPSPALKEKPAPLPAFWYWESFLEWLLQDAPAGFAPRGHEGPVPETRTHVALDPAAQTAREGFLFQTSGLEFVRGRRRLALVLWPEGPEPEGVFPLGGERRLAFWQKGGPGVPPLPEEVVAGLLRHRAARLVFLTPAFLGEAYLPKGRAFQGASVVAAVVGRPLAVSGWNLKEGKPKPSRRAVPAGSVYFVRLPEAWGEGEVRDWAEKVWFQNLSEEEQDRRDGFGLAALGLWDGKLRRWEEA
B4: Cmr6 (TTHB165) with a (His)6 tag at its C-terminus (natural protein, Thermus thermophilus HB8, UniProt Q53W04 2-348, looked up)
chain: GRRSALEGVRLPQGKEPHRGLWLDKFLRSARREDTEAKRVLVREAAGIPEPGEYRAFFKRYRGALEALGAEIREARTLSRLVVGLGGEGVLETALTLHRAYGVPYIPGSALKGLASRYAHLYLEGEAWRRDLARFHRGEAQAGLFGTTEEQGLVVFWDALPLPGKWKLHPDILNPHHPDYYGSVKAPPADWDGPKPVPFLSATGTFLLALSPAPGVSPEEAGPWLRAAWRILAWALREEGVGAKTSSGYGRMALEEPASQGEKPLAPGPSPVLQDLLTWARALSYREVPRFLASQAEAILGLSVEEAQALRRALEERGFLRNPQDLKRWRKEHPGLEGVLAKLGLSA
B5: Cmr4 (TTHB163) (natural protein, Thermus thermophilus HB8 (endogenous), UniProt Q53W06 2-286, looked up)
chain: SHVALLFLHALSPLHAGTGQGIGAIDLPIAREKATGIPYLPGSSLKGVLRDRASAWDRDTLFAVFGPDTENASEHAGAVQVGDAKLLLLPVRSLYGVFALVASPYLLERFRREALMAGLQPPGVPGLQDPTRVLLAPGSRLLGDGEKVYLEDLDLKAQGEEGVAAWERWLAERTEAPVLGRLAVVHDDLMGFLLETATEVVARIRLDDETKTVAKGALWYEESLPAESLLYALVRADRSFRKGKELPPEGVWALFRGVLEEGGGVLQLGGKATVGRGLCRIVVGR
B7: Cmr2 (TTHB160) (natural protein, Thermus thermophilus HB8 (endogenous), UniProt Q53W09 1-584, looked up)
chain: MEHLLAIALGPVQEFIATARRTRDLYAGSRLLSEAAARAAKALAREVGAKNLIFPAPEDEAGLERLAGAGIPNVLLVRVPEGKDPRGLGEQALGAARDYLRERAEEVLGPRRDLLFWREALAQVEDLLEGYYAYLPLEGDYPRARERLMALLAARKNTRDFAPVSWGSPAYKSSLDGARESVLRLPEKEADHLRVRLGLRPGEYLAGPDLLKRWWKAGHGFLSTTHMAALPFWEGVRRAGLEAVLKEALEELGGLVGEEARAEVRHPVLRDTPFGEWDVRLLYESRLEEFPSLAEDPGLLEKARDRLRALWRRLFPKVRVPPGAYYALLHADGDRMGETLDGLPSPEAHRRFSNALALGFAAQVKDIVEAHGGGLVYSGGDDVLALLPLHTALMAARALADRFREAMAPFGREGRAPSLSVGLAVVHHLEPLQDALDLARRAEKWAKEGEPKRNALCVAYSPRSGAERLVRGRWDENPPLTRRLLRYADLLRAGEVPSRAAYELLALVREAGEALSGEALVAEALRILGRKEMKRAYREELEAWLRTGEDVRRLAEELILARPFAEALDQAGVPVESREVWDAH

In series [1] the target is B4. Put plainly: native MS.
The target in series [2] is T1, recombinant Cmr2 (TTHB160), no tag (Thermus thermophilus HB8, UniProt Q53W09 1-584).
T1 sequence (looked up): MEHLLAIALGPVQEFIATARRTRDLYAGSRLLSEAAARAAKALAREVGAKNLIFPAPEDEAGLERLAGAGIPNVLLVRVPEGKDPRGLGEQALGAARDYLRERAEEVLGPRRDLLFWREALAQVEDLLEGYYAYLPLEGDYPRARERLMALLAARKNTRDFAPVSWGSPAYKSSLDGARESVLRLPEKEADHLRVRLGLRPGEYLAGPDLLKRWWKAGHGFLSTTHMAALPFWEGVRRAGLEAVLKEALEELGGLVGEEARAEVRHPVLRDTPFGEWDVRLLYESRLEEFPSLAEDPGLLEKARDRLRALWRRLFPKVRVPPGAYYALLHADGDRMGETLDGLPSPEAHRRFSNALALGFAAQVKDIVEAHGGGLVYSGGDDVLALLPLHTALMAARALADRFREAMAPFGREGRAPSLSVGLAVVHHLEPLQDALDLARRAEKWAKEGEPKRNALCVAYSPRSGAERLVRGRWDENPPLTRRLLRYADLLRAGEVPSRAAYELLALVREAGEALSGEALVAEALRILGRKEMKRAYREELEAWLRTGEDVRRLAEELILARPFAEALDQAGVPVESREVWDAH
The experiment in a line: native MS.

In series [3] the target is B7. The experiment in a line: negative-stain electron microscopy, single particle reconstruction.
Series [4] concerns the target B1. Put plainly: affinity purification with mass spectrometry.
For series [5], the target named is B7. Put plainly: affinity purification with mass spectrometry.
For series [6], the target named is B3. The experiment in a line: affinity purification with mass spectrometry.
Series [7] concerns the molecule itself. Put plainly: negative-stain electron microscopy, single particle reconstruction.
Series [8] deals with B5. The series is described as above.

From publication PMC4006948 (Molecular cell, 2013) come the findings set out here.

Regarding B1, the “stoichiometry N” value in series [1] was found to be 1 copies per Cmr6.

B2: recombinant Cmr3 (TTHB161), no tag (natural protein, Thermus thermophilus HB8, UniProt Q53W08 1-361, looked up)
chain: MLIEPRDPLIVRDGRPFTNSPGARAKSLPFPLPQTLAGAYRTRRALLEGLPLPERAEEVLRWGLRGPLLAEEGEGGWRLLAPRPLDALKLGEALYPLRPLELPQGAGTNLPEGLSPVGLPSPALKEKPAPLPAFWYWESFLEWLLQDAPAGFAPRGHEGPVPETRTHVALDPAAQTAREGFLFQTSGLEFVRGRRRLALVLWPEGPEPEGVFPLGGERRLAFWQKGGPGVPPLPEEVVAGLLRHRAARLVFLTPAFLGEAYLPKGRAFQGASVVAAVVGRPLAVSGWNLKEGKPKPSRRAVPAGSVYFVRLPEAWGEGEVRDWAEKVWFQNLSEEEQDRRDGFGLAALGLWDGKLRRWEEA
Take B2: the binding result in series [2] is reported as “binds”.

For B3, the binding result in series [3] is on record as “binds”. For the same molecule, the “stoichiometry N” value in series [1] was 1 copies per Cmr6.

Regarding B4, the binding result in series [4], in series [5] and in series [6] was “binds” throughout.

In the case of B5, the “stoichiometry N” value came out at 4 in series [7] and 4 copies per Cmr6 in series [1].

B6: Cmr5 (TTHB164) (natural protein, Thermus thermophilus HB8 (endogenous), UniProt Q53W05 1-114, looked up)
chain: MRTRSQVWAQKAYEKVREAAKGEGRGEYRDMALKLPVLVRQAGLSQALAFVDSRGKEAHKALGNDLAQVLGYRDLRELAEAAREAELLQYLRLTREVLAAAEWFKRFAQALIEE
Take B6: the binding result in series [8] is given as “binds”. For the same molecule, the “stoichiometry N” value in series [1] is 3 copies per Cmr6.

On to B7, for which the “stoichiometry N” value in series [1] was 1 copies per Cmr6.

By stoichiometry N is commonly meant the number of molecules, sites or subunits per partner or assembly.
